Test results published in paper PMC3457934.

Molecular target: in vitro assembled HIV-1 CA-NC complexes (HIV-1)
Experiment: co-sedimentation; 5 µl in vitro assembled CA-NC particles incubated with 200 µl 293T cell lysate (capsid-binding buffer plus 1X PBS) at room temperature for 1 hour; spun through a 70% sucrose cushion at 100,000×g for 1 hour at 4°C; pellet (BOUND) and INPUT analysed by Western blotting (anti-GFP, anti-HA, anti-p24); fluorescent quantification of three independent experiments

For “GFP-RanBP2 (full-length Nup358/RanBP2 fused to GFP) (from UniProt P49792 1-3224) (natural protein)”, the ratio bound/input was 1.

For “GFP-RanBP2-ΔCyp deletion mutant (from UniProt P49792 1-2786) (domain or fragment)”, the ratio bound/input was 0.39.
